Measurements as given in patent publication EP4578875A1.

Molecular target: CD3 (antibody antigen coated on the ELISA plate in Examples 1 to 3) (Homo sapiens (Human)) (UniProt P07766)
Assay: ELISA, antigen coated, anti-human IgG-HRP; against wild-type anti-CD3 antibody

Chain of CD3 (antibody antigen coated on the ELISA plate in Examples 1 to 3) (Homo sapiens (Human)) (P07766 23-126 limits assumed): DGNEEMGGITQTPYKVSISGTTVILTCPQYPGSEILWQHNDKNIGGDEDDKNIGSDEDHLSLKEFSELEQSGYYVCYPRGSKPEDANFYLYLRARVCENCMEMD

Row | Binder | Binding strength of mutants (EC50 mutant/EC50 wild-type)
1 | anti-CD3 antibody mutant VH-M34C (antibody, V domains shown) VH: EVQLVESGGGLVQPGGSLRLSCAASGFTFSTYACNWVRQAPGKGLEWVGRIRSKYNNYATYYADSVKDRFTISRDDSKNSLYLQMNSLKTEDTAVYYCARHGNFGNSYVSWFAYWGQGTLVTVSS VL: QTVVTQEPSLTVSPGGTVTLTCRSSTGAVTTSNYANWVQQKPGQAPRGLIGGTNKRAPGVPARFSGSLLGDKAALTLLGAQPEDEAEYFCALWYSNLWVFGGGTKLTVL | 1.1
2 | anti-CD3 antibody mutant VH-W111C (antibody, V domains shown) VH: EVQLVESGGGLVQPGGSLRLSCAASGFTFSTYAMNWVRQAPGKGLEWVGRIRSKYNNYATYYADSVKDRFTISRDDSKNSLYLQMNSLKTEDTAVYYCARHGNFGNSYVSCFAYWGQGTLVTVSS VL: QTVVTQEPSLTVSPGGTVTLTCRSSTGAVTTSNYANWVQQKPGQAPRGLIGGTNKRAPGVPARFSGSLLGDKAALTLLGAQPEDEAEYFCALWYSNLWVFGGGTKLTVL | 2
3 | anti-CD3 antibody mutant VH-F104C (antibody, V domains shown) VH: EVQLVESGGGLVQPGGSLRLSCAASGFTFSTYAMNWVRQAPGKGLEWVGRIRSKYNNYATYYADSVKDRFTISRDDSKNSLYLQMNSLKTEDTAVYYCARHGNCGNSYVSWFAYWGQGTLVTVSS VL: QTVVTQEPSLTVSPGGTVTLTCRSSTGAVTTSNYANWVQQKPGQAPRGLIGGTNKRAPGVPARFSGSLLGDKAALTLLGAQPEDEAEYFCALWYSNLWVFGGGTKLTVL | 1
4 | anti-CD3 antibody mutant VL-K55C (antibody, V domains shown) VH: EVQLVESGGGLVQPGGSLRLSCAASGFTFSTYAMNWVRQAPGKGLEWVGRIRSKYNNYATYYADSVKDRFTISRDDSKNSLYLQMNSLKTEDTAVYYCARHGNFGNSYVSWFAYWGQGTLVTVSS VL: QTVVTQEPSLTVSPGGTVTLTCRSSTGAVTTSNYANWVQQKPGQAPRGLIGGTNCRAPGVPARFSGSLLGDKAALTLLGAQPEDEAEYFCALWYSNLWVFGGGTKLTVL | 0.9
5 | anti-CD3 antibody mutant VH-S53C (antibody, V domains shown) VH: EVQLVESGGGLVQPGGSLRLSCAASGFTFSTYAMNWVRQAPGKGLEWVGRIRCKYNNYATYYADSVKDRFTISRDDSKNSLYLQMNSLKTEDTAVYYCARHGNFGNSYVSWFAYWGQGTLVTVSS VL: QTVVTQEPSLTVSPGGTVTLTCRSSTGAVTTSNYANWVQQKPGQAPRGLIGGTNKRAPGVPARFSGSLLGDKAALTLLGAQPEDEAEYFCALWYSNLWVFGGGTKLTVL | 1.2
6 | anti-CD3 antibody mutant VL-R56C (antibody, V domains shown) VH: EVQLVESGGGLVQPGGSLRLSCAASGFTFSTYAMNWVRQAPGKGLEWVGRIRSKYNNYATYYADSVKDRFTISRDDSKNSLYLQMNSLKTEDTAVYYCARHGNFGNSYVSWFAYWGQGTLVTVSS VL: QTVVTQEPSLTVSPGGTVTLTCRSSTGAVTTSNYANWVQQKPGQAPRGLIGGTNKCAPGVPARFSGSLLGDKAALTLLGAQPEDEAEYFCALWYSNLWVFGGGTKLTVL | 1.5
7 | anti-CD3 antibody mutant VL-W93C (antibody, V domains shown) VH: EVQLVESGGGLVQPGGSLRLSCAASGFTFSTYAMNWVRQAPGKGLEWVGRIRSKYNNYATYYADSVKDRFTISRDDSKNSLYLQMNSLKTEDTAVYYCARHGNFGNSYVSWFAYWGQGTLVTVSS VL: QTVVTQEPSLTVSPGGTVTLTCRSSTGAVTTSNYANWVQQKPGQAPRGLIGGTNKRAPGVPARFSGSLLGDKAALTLLGAQPEDEAEYFCALCYSNLWVFGGGTKLTVL | 1.8
8 | anti-CD3 antibody mutant VL-Y94C (antibody, V domains shown) VH: EVQLVESGGGLVQPGGSLRLSCAASGFTFSTYAMNWVRQAPGKGLEWVGRIRSKYNNYATYYADSVKDRFTISRDDSKNSLYLQMNSLKTEDTAVYYCARHGNFGNSYVSWFAYWGQGTLVTVSS VL: QTVVTQEPSLTVSPGGTVTLTCRSSTGAVTTSNYANWVQQKPGQAPRGLIGGTNKRAPGVPARFSGSLLGDKAALTLLGAQPEDEAEYFCALWCSNLWVFGGGTKLTVL | 1
9 | anti-CD3 antibody mutant VH-Y61C (antibody, V domains shown) VH: EVQLVESGGGLVQPGGSLRLSCAASGFTFSTYAMNWVRQAPGKGLEWVGRIRSKYNNYATCYADSVKDRFTISRDDSKNSLYLQMNSLKTEDTAVYYCARHGNFGNSYVSWFAYWGQGTLVTVSS VL: QTVVTQEPSLTVSPGGTVTLTCRSSTGAVTTSNYANWVQQKPGQAPRGLIGGTNKRAPGVPARFSGSLLGDKAALTLLGAQPEDEAEYFCALWYSNLWVFGGGTKLTVL | 5.1
10 | anti-CD3 antibody mutant VL-N96C (antibody, V domains shown) VH: EVQLVESGGGLVQPGGSLRLSCAASGFTFSTYAMNWVRQAPGKGLEWVGRIRSKYNNYATYYADSVKDRFTISRDDSKNSLYLQMNSLKTEDTAVYYCARHGNFGNSYVSWFAYWGQGTLVTVSS VL: QTVVTQEPSLTVSPGGTVTLTCRSSTGAVTTSNYANWVQQKPGQAPRGLIGGTNKRAPGVPARFSGSLLGDKAALTLLGAQPEDEAEYFCALWYSCLWVFGGGTKLTVL | 1
11 | anti-CD3 antibody mutant VL-Y34C (antibody, V domains shown) VH: EVQLVESGGGLVQPGGSLRLSCAASGFTFSTYAMNWVRQAPGKGLEWVGRIRSKYNNYATYYADSVKDRFTISRDDSKNSLYLQMNSLKTEDTAVYYCARHGNFGNSYVSWFAYWGQGTLVTVSS VL: QTVVTQEPSLTVSPGGTVTLTCRSSTGAVTTSNCANWVQQKPGQAPRGLIGGTNKRAPGVPARFSGSLLGDKAALTLLGAQPEDEAEYFCALWYSNLWVFGGGTKLTVL | 1.2
12 | anti-CD3 antibody mutant VL-N54C (antibody, V domains shown) VH: EVQLVESGGGLVQPGGSLRLSCAASGFTFSTYAMNWVRQAPGKGLEWVGRIRSKYNNYATYYADSVKDRFTISRDDSKNSLYLQMNSLKTEDTAVYYCARHGNFGNSYVSWFAYWGQGTLVTVSS VL: QTVVTQEPSLTVSPGGTVTLTCRSSTGAVTTSNYANWVQQKPGQAPRGLIGGTCKRAPGVPARFSGSLLGDKAALTLLGAQPEDEAEYFCALWYSNLWVFGGGTKLTVL | 1

Molecular target: CD3 (antibody antigen coated on the ELISA plate in Examples 1 to 3) (Homo sapiens (Human)) (UniProt P07766)
Assay: binding activity of the conjugated mutant compared with the wild-type antibody (ELISA as in Example 1)

Row | Binder | Blocking fold after conjugation (+20K) [fold]
13 | anti-CD3 antibody mutant VL-Y34C conjugated with Molecule I (+20K) (antibody, V domains shown, Molecule I (+20K, shown only as a drawing) conjugated on Cys 34) VH: EVQLVESGGGLVQPGGSLRLSCAASGFTFSTYAMNWVRQAPGKGLEWVGRIRSKYNNYATYYADSVKDRFTISRDDSKNSLYLQMNSLKTEDTAVYYCARHGNFGNSYVSWFAYWGQGTLVTVSS VL: QTVVTQEPSLTVSPGGTVTLTCRSSTGAVTTSNCANWVQQKPGQAPRGLIGGTNKRAPGVPARFSGSLLGDKAALTLLGAQPEDEAEYFCALWYSNLWVFGGGTKLTVL | 8
14 | anti-CD3 antibody mutant VL-R56C conjugated with Molecule I (+20K) (antibody, V domains shown, Molecule I (+20K, shown only as a drawing) conjugated on Cys 56) VH: EVQLVESGGGLVQPGGSLRLSCAASGFTFSTYAMNWVRQAPGKGLEWVGRIRSKYNNYATYYADSVKDRFTISRDDSKNSLYLQMNSLKTEDTAVYYCARHGNFGNSYVSWFAYWGQGTLVTVSS VL: QTVVTQEPSLTVSPGGTVTLTCRSSTGAVTTSNYANWVQQKPGQAPRGLIGGTNKCAPGVPARFSGSLLGDKAALTLLGAQPEDEAEYFCALWYSNLWVFGGGTKLTVL | 6
15 | anti-CD3 antibody mutant VL-K55C conjugated with Molecule I (+20K) (antibody, V domains shown, Molecule I (+20K, shown only as a drawing) conjugated on Cys 55) VH: EVQLVESGGGLVQPGGSLRLSCAASGFTFSTYAMNWVRQAPGKGLEWVGRIRSKYNNYATYYADSVKDRFTISRDDSKNSLYLQMNSLKTEDTAVYYCARHGNFGNSYVSWFAYWGQGTLVTVSS VL: QTVVTQEPSLTVSPGGTVTLTCRSSTGAVTTSNYANWVQQKPGQAPRGLIGGTNCRAPGVPARFSGSLLGDKAALTLLGAQPEDEAEYFCALWYSNLWVFGGGTKLTVL | 5
16 | anti-CD3 antibody mutant VL-N54C conjugated with Molecule I (+20K) (antibody, V domains shown, Molecule I (+20K, shown only as a drawing) conjugated on Cys 54) VH: EVQLVESGGGLVQPGGSLRLSCAASGFTFSTYAMNWVRQAPGKGLEWVGRIRSKYNNYATYYADSVKDRFTISRDDSKNSLYLQMNSLKTEDTAVYYCARHGNFGNSYVSWFAYWGQGTLVTVSS VL: QTVVTQEPSLTVSPGGTVTLTCRSSTGAVTTSNYANWVQQKPGQAPRGLIGGTCKRAPGVPARFSGSLLGDKAALTLLGAQPEDEAEYFCALWYSNLWVFGGGTKLTVL | 12
17 | anti-CD3 antibody mutant VH-M34C conjugated with Molecule I (+20K) (antibody, V domains shown, Molecule I (+20K, shown only as a drawing) conjugated on Cys 34) VH: EVQLVESGGGLVQPGGSLRLSCAASGFTFSTYACNWVRQAPGKGLEWVGRIRSKYNNYATYYADSVKDRFTISRDDSKNSLYLQMNSLKTEDTAVYYCARHGNFGNSYVSWFAYWGQGTLVTVSS VL: QTVVTQEPSLTVSPGGTVTLTCRSSTGAVTTSNYANWVQQKPGQAPRGLIGGTNKRAPGVPARFSGSLLGDKAALTLLGAQPEDEAEYFCALWYSNLWVFGGGTKLTVL | 5
18 | anti-CD3 antibody mutant VH-W111C conjugated with Molecule I (+20K) (antibody, V domains shown, Molecule I (+20K, shown only as a drawing) conjugated on Cys 111) VH: EVQLVESGGGLVQPGGSLRLSCAASGFTFSTYAMNWVRQAPGKGLEWVGRIRSKYNNYATYYADSVKDRFTISRDDSKNSLYLQMNSLKTEDTAVYYCARHGNFGNSYVSCFAYWGQGTLVTVSS VL: QTVVTQEPSLTVSPGGTVTLTCRSSTGAVTTSNYANWVQQKPGQAPRGLIGGTNKRAPGVPARFSGSLLGDKAALTLLGAQPEDEAEYFCALWYSNLWVFGGGTKLTVL | 6
19 | anti-CD3 antibody mutant VH-S53C conjugated with Molecule I (+20K) (antibody, V domains shown, Molecule I (+20K, shown only as a drawing) conjugated on Cys 53) VH: EVQLVESGGGLVQPGGSLRLSCAASGFTFSTYAMNWVRQAPGKGLEWVGRIRCKYNNYATYYADSVKDRFTISRDDSKNSLYLQMNSLKTEDTAVYYCARHGNFGNSYVSWFAYWGQGTLVTVSS VL: QTVVTQEPSLTVSPGGTVTLTCRSSTGAVTTSNYANWVQQKPGQAPRGLIGGTNKRAPGVPARFSGSLLGDKAALTLLGAQPEDEAEYFCALWYSNLWVFGGGTKLTVL | 3
20 | anti-CD3 antibody mutant VH-F104C conjugated with Molecule I (+20K) (antibody, V domains shown, Molecule I (+20K, shown only as a drawing) conjugated on Cys 104) VH: EVQLVESGGGLVQPGGSLRLSCAASGFTFSTYAMNWVRQAPGKGLEWVGRIRSKYNNYATYYADSVKDRFTISRDDSKNSLYLQMNSLKTEDTAVYYCARHGNCGNSYVSWFAYWGQGTLVTVSS VL: QTVVTQEPSLTVSPGGTVTLTCRSSTGAVTTSNYANWVQQKPGQAPRGLIGGTNKRAPGVPARFSGSLLGDKAALTLLGAQPEDEAEYFCALWYSNLWVFGGGTKLTVL | 13
